IntAct's records for PubMed 17595294

B1: Glycine--tRNA ligase (Homo sapiens), P41250 (parent)
chain: MPSPRPVLLRGARAALLLLLPPRLLARPSLLLRRSLSAASCPPISLPAAASRSSMDGAGAEEVLAPLRLAVRQQGDLVRKLKEDKAPQVDVDKAVAELKARKRVLEAKELALQPKDDIVDRAKMEDTLKRRFFYDQAFAIYGGVSGLYDFGPVGCALKNNIIQTWRQHFIQEEQILEIDCTMLTPEPVLKTSGHVDKFADFMVKDVKNGECFRADHLLKAHLQKLMSDKKCSVEKKSEMESVLAQLDNYGQQELADLFVNYNVKSPITGNDLSPPVSFNLMFKTFIGPGGNMPGYLRPETAQGIFLNFKRLLEFNQGKLPFAAAQIGNSFRNEISPRSGLIRVREFTMAEIEHFVDPSEKDHPKFQNVADLHLYLYSAKAQVSGQSARKMRLGDAVEQGVINNTVLGYFIGRIYLYLTKVGISPDKLRFRQHMENEMAHYACDCWDAESKTSYGWIEIVGCADRSCYDLSCHARATKVPLVAEKPLKEPKTVNVVQFEPSKGAIGKAYKKDAKLVMEYLAICDECYITEMEMLLNEKGEFTIETEGKTFQLTKDMINVKRFQKTLYVEEVVPNVIEPSFGLGRIMYTVFEHTFHVREGDEQRTFFSFPAVVAPFKCSVLPLSQNQEFMPFVKELSEALTRHGVSHKVDDSSGSIGRRYARTDEIGVAFGVTIDFDTVNKTPHTATLRDRDSMRQIRAEISELPSIVQDLANGNITWADVEARYPLFEGQETGKKETIEE
partner: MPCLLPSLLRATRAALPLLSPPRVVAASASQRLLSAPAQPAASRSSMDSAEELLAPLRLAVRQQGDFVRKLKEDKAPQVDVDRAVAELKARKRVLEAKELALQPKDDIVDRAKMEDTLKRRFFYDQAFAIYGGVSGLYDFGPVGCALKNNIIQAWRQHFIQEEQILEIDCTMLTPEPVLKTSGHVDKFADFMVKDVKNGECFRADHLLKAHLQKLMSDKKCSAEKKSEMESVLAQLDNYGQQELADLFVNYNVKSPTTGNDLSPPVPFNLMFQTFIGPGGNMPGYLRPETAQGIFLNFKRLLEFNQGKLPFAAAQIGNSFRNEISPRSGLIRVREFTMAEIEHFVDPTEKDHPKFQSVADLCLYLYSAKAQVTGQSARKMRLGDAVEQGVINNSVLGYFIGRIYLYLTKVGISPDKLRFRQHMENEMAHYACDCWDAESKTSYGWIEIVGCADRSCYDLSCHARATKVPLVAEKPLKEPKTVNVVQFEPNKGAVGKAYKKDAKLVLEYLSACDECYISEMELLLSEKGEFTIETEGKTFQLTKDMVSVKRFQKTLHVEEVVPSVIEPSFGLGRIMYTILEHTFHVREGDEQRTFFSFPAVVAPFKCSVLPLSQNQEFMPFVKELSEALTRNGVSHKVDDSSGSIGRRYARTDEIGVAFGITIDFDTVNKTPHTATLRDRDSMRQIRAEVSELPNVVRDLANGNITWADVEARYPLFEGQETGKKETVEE

Variants of: B1
Settings: with gars_mouse Gars1, Q9CZD3

Row | effect of a mutation on the interaction | Variant
1 | disrupting interaction strength | L183P
2 | increasing interaction strength | D554N
3 | disrupting interaction strength | G294R
4 | increasing interaction strength | G580R
5 | increasing interaction strength | S644L
